Measurements as given in paper PMC4256270, “In Vivo Occupancy of Mitochondrial Single-Stranded DNA Binding Protein Supports the Strand Displacement Mode of DNA Replication”.

Target: T1, mtSSB (mitochondrial single-stranded DNA-binding protein) (human, UniProt Q04837 17-148)
T1 sequence: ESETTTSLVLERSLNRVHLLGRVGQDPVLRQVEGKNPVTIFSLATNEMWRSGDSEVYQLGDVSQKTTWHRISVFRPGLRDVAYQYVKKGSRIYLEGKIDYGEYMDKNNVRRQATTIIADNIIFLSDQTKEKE
Assay: EMSA; 25 fmol DNA in 15 ul; no free template at tetramer:DNA 1:1 or higher; 10 mM Mg2+, 2 mM ATP; 20 mM Tris-HCl pH 8.0, 10 mM MgCl2, 100 ug/ml BSA, 1 mM DTT, 2 mM ATP, 10% glycerol, 15 min at room temperature; 10% native PAGE in 1x TBE
Conditions: protein: recombinant; chain copies: 4; label: 5'-32P; single strand, unstructured

## AACACCAGCAGAACTTTTTTAACAAGCAACACACAGAAGACA (ssDNA) [6-dT (no predicted secondary structure; no stem)]
  binding result: binds
